Source: patent publication US20170209564A1

Legend:
Test in all cases: ELISA signal over HTRF expression signal, P. pastoris
Conditions in all cases: remark: other sources report otherwise
10F9 = biological target: 10F9
11B4 = biological target: 11B4
11H6 = biological target: 11H6
26H1 = biological target: 26H1
2C4 = biological target: 2C4
36D6 = biological target: 36D6
36H2 = biological target: 36H2
48B10 = biological target: 48B10
48D11 = biological target: 48D11
53G10 = biological target: 53G10
56D2 = biological target: 56D2
56F4 = biological target: 56F4
57B8 = biological target: 57B8
58A11 = biological target: 58A11
63C3 = biological target: 63C3
63D3 = biological target: 63D3
66C8 = biological target: 66C8
69G8 = biological target: 69G8
6A1 = biological target: 6A1
71C4 = biological target: 71C4
71E7 = biological target: 71E7
71H2 = biological target: 71H2
72D4 = biological target: 72D4
74D7 = biological target: 74D7
75H8 = biological target: 75H8
76A10 = biological target: 76A10
76D10 = biological target: 76D10
78F11 = biological target: 78F11
79F8 = biological target: 79F8
7B6 = biological target: 7B6
7D9 = biological target: 7D9
86F1 = biological target: 86F1
86G3 = biological target: 86G3
86H9 = biological target: 86H9
89F11 = biological target: 89F11
90A9 = biological target: 90A9
91F10 = biological target: 91F10
97G10 = biological target: 97G10

B1: CR6261 (antibody, V domains shown)
VH: EVQLVESGAEVKKPGSSVKVSCKASGGPFRSYAISWVRQAPGQGPEWMGGIIPIFGTTKYAPKFQGRVTITADDFAGTVYMELSSLRSEDTAMYYCAKHMGYQVRETMDVWGKGTTVTVSS
VL: QSVLTQPPSVSAAPGQKVTISCSGSSSNIGNDYVSWYQQLPGTAPKLLIYDNNKRPSGIPDRFSGSKSGTSATLGITGLQTGDEANYYCATWDRRPTAYVVFGGGTKLTVLG
10F9
  fold increase of ratio over parental SEQ ID NO: 6: 3.93
  ratio (binding signal/HTRF signal): 23.3
11B4
  fold increase of ratio over parental SEQ ID NO: 6: 3.23
  ratio (binding signal/HTRF signal): 19.2
11H6
  fold increase of ratio over parental SEQ ID NO: 6: 7.87
  ratio (binding signal/HTRF signal): 46.7
26H1
  fold increase of ratio over parental SEQ ID NO: 6: 1.62
  ratio (binding signal/HTRF signal): 9.64
2C4
  fold increase of ratio over parental SEQ ID NO: 6: 4.29
  ratio (binding signal/HTRF signal): 25.5
36D6
  fold increase of ratio over parental SEQ ID NO: 6: 1.83
  ratio (binding signal/HTRF signal): 10.8
36H2
  fold increase of ratio over parental SEQ ID NO: 6: 1.95
  ratio (binding signal/HTRF signal): 11.6
48B10
  fold increase of ratio over parental SEQ ID NO: 6: 3.16
  ratio (binding signal/HTRF signal): 18.8
48D11
  fold increase of ratio over parental SEQ ID NO: 6: 2.98
  ratio (binding signal/HTRF signal): 17.7
53G10
  fold increase of ratio over parental SEQ ID NO: 6: 2.93
  ratio (binding signal/HTRF signal): 17.4
56D2
  fold increase of ratio over parental SEQ ID NO: 6: 2.3
  ratio (binding signal/HTRF signal): 13.7
56F4
  fold increase of ratio over parental SEQ ID NO: 6: 3.21
  ratio (binding signal/HTRF signal): 19.1
57B8
  fold increase of ratio over parental SEQ ID NO: 6: 1.7
  ratio (binding signal/HTRF signal): 10.1
58A11
  fold increase of ratio over parental SEQ ID NO: 6: 1.67
  ratio (binding signal/HTRF signal): 9.93
63C3
  fold increase of ratio over parental SEQ ID NO: 6: 4.15
  ratio (binding signal/HTRF signal): 24.7
63D3
  fold increase of ratio over parental SEQ ID NO: 6: 1.87
  ratio (binding signal/HTRF signal): 11.1
66C8
  fold increase of ratio over parental SEQ ID NO: 6: 2.29
  ratio (binding signal/HTRF signal): 13.6
69G8
  fold increase of ratio over parental SEQ ID NO: 6: 8.55
  ratio (binding signal/HTRF signal): 50.8
6A1
  fold increase of ratio over parental SEQ ID NO: 6: 4.63
  ratio (binding signal/HTRF signal): 27.5
71C4
  fold increase of ratio over parental SEQ ID NO: 6: 5.13
  ratio (binding signal/HTRF signal): 30.4
71E7
  fold increase of ratio over parental SEQ ID NO: 6: 3.19
  ratio (binding signal/HTRF signal): 19
71H2
  fold increase of ratio over parental SEQ ID NO: 6: 11.2
  ratio (binding signal/HTRF signal): 66.3
72D4
  fold increase of ratio over parental SEQ ID NO: 6: 6.25
  ratio (binding signal/HTRF signal): 37.1
74D7
  fold increase of ratio over parental SEQ ID NO: 6: 3.27
  ratio (binding signal/HTRF signal): 19.4
75H8
  fold increase of ratio over parental SEQ ID NO: 6: 1.73
  ratio (binding signal/HTRF signal): 10.2
76A10
  fold increase of ratio over parental SEQ ID NO: 6: 3.37
  ratio (binding signal/HTRF signal): 20
76D10
  fold increase of ratio over parental SEQ ID NO: 6: 1.97
  ratio (binding signal/HTRF signal): 11.7
78F11
  fold increase of ratio over parental SEQ ID NO: 6: 3.41
  ratio (binding signal/HTRF signal): 20.2
79F8
  fold increase of ratio over parental SEQ ID NO: 6: 2.64
  ratio (binding signal/HTRF signal): 15.7
7B6
  fold increase of ratio over parental SEQ ID NO: 6: 1.66
  ratio (binding signal/HTRF signal): 9.84
7D9
  fold increase of ratio over parental SEQ ID NO: 6: 2.07
  ratio (binding signal/HTRF signal): 12.3
86F1
  fold increase of ratio over parental SEQ ID NO: 6: 2.92
  ratio (binding signal/HTRF signal): 17.4
86G3
  fold increase of ratio over parental SEQ ID NO: 6: 3.87
  ratio (binding signal/HTRF signal): 23
86H9
  fold increase of ratio over parental SEQ ID NO: 6: 5.77
  ratio (binding signal/HTRF signal): 34.3
89F11
  fold increase of ratio over parental SEQ ID NO: 6: 2.42
  ratio (binding signal/HTRF signal): 14.4
90A9
  fold increase of ratio over parental SEQ ID NO: 6: 7.72
  ratio (binding signal/HTRF signal): 45.8
91F10
  fold increase of ratio over parental SEQ ID NO: 6: 1.78
  ratio (binding signal/HTRF signal): 10.6
97G10
  fold increase of ratio over parental SEQ ID NO: 6: 2.12
  ratio (binding signal/HTRF signal): 12.6
